Source: patent publication US20250057970A1, “TROP2 TARGETING ANTIBODY-DRUG CONJUGATE, AND PREPARATION METHOD AND USE THEREFOR” (priority 2020, published 2025)
Read-outs that look alike come from different tables or passages of the source. Numbered stars: 1 amine (or outer) side, 2 acyl side, 3 side chain; on linkers, the order of the positions; unused ones are H or OH. Square brackets hold non-standard residues; d marks the D form. Peptide text beside a SMILES is read from it. * marks the point of attachment. Exatecan = CC[C@@]1(O)C(=O)OCc2c1cc1n(c2=O)Cc2c-1nc1cc(F)c(C)c3c1c2[C@@H](N*)CC3; Hexanoyl(6-maleimido) = O=C1C=CC(=O)N1CCCCCC(=O)*; NHCH2OCH2CO = O=C(COCN[*:1])[*:2]

How the values were obtained:
[1] = biological target: cathepsin B (Homo sapiens, UniProt P07858); conditions: for speed of enzyme digestion: pH range 5.0 to 7.0
Excerpt: Samples were taken at different time points and entered into a high-performance liquid chromatography-mass spectrometry instrument. The external standard method (with DXD as the external standard) was used to determine the release percentage of the drug.

[2] = tested on: NCI-N87 cell line; assay: Killing activity on NCI-N87 before and after cathepsin B digestion; format: cell-based, human; conditions: NCI-N87, 144 hours, read-out: IC50 (based on SN-38 equivalent)
Experimental: NCI-N87 cell line was selected as the experimental cell lines. After the sample was incubated in cathepsin B system (100 mM sodium acetate-acetic acid buffer, 4 mM dithiothreitol, pH 5.0) at 37° C. for 4 hours, the obtained sample was diluted with culture medium to different concentrations. 8 concentrations (1.5 to 10-fold dilution) were set from 70 nM to 0.003 nM of SN-38 concentration. […] The IC50 value was calculated by reading the […] data after chemical luminescent staining with CellTiter-Glo® Luminescent Cell Viability Assay.

[3] = biological target: T1, Tumor-associated calcium signal transducer 2 (UniProt P09758 27-323, limits assumed); assay: cell-based or functional assay
T1 sequence (looked up): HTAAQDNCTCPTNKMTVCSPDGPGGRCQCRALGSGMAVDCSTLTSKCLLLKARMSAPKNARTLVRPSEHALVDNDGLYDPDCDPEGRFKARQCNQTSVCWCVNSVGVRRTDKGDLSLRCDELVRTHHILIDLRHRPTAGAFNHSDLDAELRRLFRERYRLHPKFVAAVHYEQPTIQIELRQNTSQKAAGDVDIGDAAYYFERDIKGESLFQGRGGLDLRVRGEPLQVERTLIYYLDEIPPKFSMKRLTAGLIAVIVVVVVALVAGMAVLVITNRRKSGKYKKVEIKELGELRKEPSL

CC[C@@]1(O)C(=O)OCc2c1cc1n(c2=O)Cc2c-1nc1cc(F)c(C)c3c1c2[C@@H](NC(=O)COCN(CCS(C)(=O)=O)C(=O)OCc1ccc(NC(=O)[C@H](C)NC(=O)[C@@H](NC(=O)CCCCCN2C(=O)C=CC2=O)C(C)C)cc1)CC3 [LE14]
Percentage of drug release in the sample ([1]; pH 5.0, 0 h): 13.82% | Percentage of drug release in the sample ([1]; pH 5.0, 1 h): 96.0% | Percentage of drug release in the sample ([1]; pH 5.0, 2 h): 98.35% | Percentage of drug release in the sample ([1]; pH 5.0, 3 h): 99.12% | Percentage of drug release in the sample ([1]; pH 5.0, 4 h): 99.21% | Percentage of drug release in the sample ([1]; pH 5.0, 5 h): 99.45% | Percentage of drug release in the sample ([1]; pH 5.0, 6 h): 98.23% | Percentage of drug release in the sample ([1]; pH 6.0, 0 h): 14.32% | Percentage of drug release in the sample ([1]; pH 6.0, 1 h): 96.12% | Percentage of drug release in the sample ([1]; pH 6.0, 2 h): 96.75% | Percentage of drug release in the sample ([1]; pH 6.0, 3 h): 98.52% | Percentage of drug release in the sample ([1]; pH 6.0, 4 h): 98.45% | Percentage of drug release in the sample ([1]; pH 6.0, 5 h): 98.92% | Percentage of drug release in the sample ([1]; pH 6.0, 6 h): 99.15% | Percentage of drug release in the sample ([1]; pH 7.0, 0 h): 16.59% | Percentage of drug release in the sample ([1]; pH 7.0, 1 h): 98.32% | Percentage of drug release in the sample ([1]; pH 7.0, 2 h): 98.45% | Percentage of drug release in the sample ([1]; pH 7.0, 3 h): 99.12% | Percentage of drug release in the sample ([1]; pH 7.0, 4 h): 99.12% | Percentage of drug release in the sample ([1]; pH 7.0, 5 h): 99.87% | Percentage of drug release in the sample ([1]; pH 7.0, 6 h): 99.47% | speed of enzyme digestion [1]: quickly enzymatically digested

CC[C@@]1(O)C(=O)OCc2c1cc1n(c2=O)Cc2c-1nc1cc(F)c(C)c3c1c2[C@@H](NC(=O)COCNC(=O)CNC(=O)[C@H](Cc1ccccc1)NC(=O)CNC(=O)CNC(=O)CCCCCN1C(=O)C=CC1=O)CC3 [GGFG-Dxd, reference compound] ({Hexanoyl(6-maleimido)}-GGFG[NHCH2OCH2CO]-Exatecan)
speed of enzyme digestion [1]: slow speed of enzyme digestion

CCc1c2c(nc3ccc(O)cc13)-c1cc3c(c(=O)n1C2)COC(=O)[C@]3(O)CC [SN-38, 7-ethyl-10-hydroxycamptothecin, reference compound]
IC50 ([2]; After Enzyme Digestion (cathepsin B, pH 5.0, 37° C., 4 hours)): 7.43 nM | IC50 ([2]; Before Enzyme Digestion): 7.18 nM

B1: FDA018-LE12 (antibody, human IgG1, kappa, V domains shown)
VH: QVQLQQSGSELKKPGASVKVSCKASGYTFTNYGMNWVKQAPGQGLKWMGWINTYTGEPTYTDDFKGRFAFSLDTSVSTAYLQISSLKADDTAVYFCARGGFGSSYWYFDVWGQGSLVTVSS
VL: DIQLTQSPSSLSASVGDRVSITCKASQDVSIAVAWYQQKPGKAPKLLIYSASYRYTGVPDRFSGSGSGTDFTLTISSLQPEDFAVYYCQQHYITPLTFGAGTKVEIKR
modifications: linker-drug LE12 (Dxd payload) coupled to cysteine sulfhydryl groups after reduction of the interchain disulfide bonds; DAR 3.90 for the whole antibody; sites not stated
IC50 (nM), in vitro killing activity, BXPC3 Cell [3]: 0.68 nM | IC50 (nM), in vitro killing activity, MDA-MB-468 Cell [3]: 1.03 nM | IC50 (nM), in vitro killing activity, NCI-N87 Cell [3]: 1.12 nM

B2: FDA018-LE13 (antibody, human IgG1, kappa, V domains shown)
VH: B1 VH
VL: B1 VL
modifications: linker-drug LE13 coupled to cysteine sulfhydryl groups after reduction of the interchain disulfide bonds; DAR 4.10 for the whole antibody; sites not stated
IC50 (nM), in vitro killing activity, BXPC3 Cell [3]: 1.23 nM | IC50 (nM), in vitro killing activity, MDA-MB-468 Cell [3]: 2 nM | IC50 (nM), in vitro killing activity, NCI-N87 Cell [3]: 2.34 nM

B3: FDA018-LE16 (antibody, human IgG1, kappa, V domains shown)
VH: B1 VH
VL: B1 VL
modifications: linker-drug LE16 coupled to cysteine sulfhydryl groups after reduction of the interchain disulfide bonds; DAR 4.03 for the whole antibody; sites not stated
IC50 (nM), in vitro killing activity, BXPC3 Cell [3]: 1.58 nM | IC50 (nM), in vitro killing activity, MDA-MB-468 Cell [3]: 1.64 nM | IC50 (nM), in vitro killing activity, NCI-N87 Cell [3]: 1.35 nM

B4: FDA018-LE19 (antibody, human IgG1, kappa, V domains shown)
VH: B1 VH
VL: B1 VL
modifications: linker-drug LE19 coupled to cysteine sulfhydryl groups after reduction of the interchain disulfide bonds; DAR 4.13 for the whole antibody; sites not stated
IC50 (nM), in vitro killing activity, MDA-MB-468 Cell [3]: 1.03 nM

B5: FDA018-LE22 (antibody, human IgG1, kappa, V domains shown)
VH: B1 VH
VL: B1 VL
modifications: linker-drug LE22 coupled to cysteine sulfhydryl groups after reduction of the interchain disulfide bonds; DAR 4.00 for the whole antibody; sites not stated
IC50 (nM), in vitro killing activity, BXPC3 Cell [3]: 1.69 nM | IC50 (nM), in vitro killing activity, NCI-N87 Cell [3]: 3.25 nM

B6: FDA018-LE20 (antibody, human IgG1, kappa, V domains shown)
VH: B1 VH
VL: B1 VL
modifications: linker-drug LE20 coupled to cysteine sulfhydryl groups after reduction of the interchain disulfide bonds; DAR 3.88 for the whole antibody; sites not stated
IC50 (nM), in vitro killing activity, NCI-N87 Cell [3]: 1.15 nM

B7: FDA018-LE14 (antibody, human IgG1, kappa, V domains shown)
VH: B1 VH
VL: B1 VL
modifications: linker-drug LE14 coupled to cysteine sulfhydryl groups after reduction of the interchain disulfide bonds; DAR 4.00 for the whole antibody; sites not stated
IC50 (nM), in vitro killing activity, BXPC3 Cell [3]: 0.5 nM | IC50 (nM), in vitro killing activity, MDA-MB-468 Cell [3]: 0.8 nM | IC50 (nM), in vitro killing activity, NCI-N87 Cell [3]: 1.08 nM

B8: FDA018-LE18 (antibody, human IgG1, kappa, V domains shown)
VH: B1 VH
VL: B1 VL
modifications: linker-drug LE18 coupled to cysteine sulfhydryl groups after reduction of the interchain disulfide bonds; DAR 3.96 for the whole antibody; sites not stated
IC50 (nM), in vitro killing activity, MDA-MB-468 Cell [3]: 0.86 nM

B9: FDA018-GGFG-Dxd (antibody, human IgG1, kappa, V domains shown)
VH: B1 VH
VL: B1 VL
modifications: linker-drug GGFG-Dxd coupled to cysteine sulfhydryl groups after reduction of the interchain disulfide bonds; DAR 4.03 for the whole antibody; sites not stated
IC50 (nM), in vitro killing activity, BXPC3 Cell [3]: 0.61 nM | IC50 (nM), in vitro killing activity, MDA-MB-468 Cell [3]: 1.2 nM | IC50 (nM), in vitro killing activity, NCI-N87 Cell [3]: 1.1 nM

B10: FDA018-LE21 (antibody, human IgG1, kappa, V domains shown)
VH: B1 VH
VL: B1 VL
modifications: linker-drug LE21 coupled to cysteine sulfhydryl groups after reduction of the interchain disulfide bonds; DAR 4.05 for the whole antibody; sites not stated
IC50 (nM), in vitro killing activity, BXPC3 Cell [3]: 1.23 nM | IC50 (nM), in vitro killing activity, NCI-N87 Cell [3]: 1.23 nM

B11: FDA018-LE17 (antibody, human IgG1, kappa, V domains shown)
VH: B1 VH
VL: B1 VL
modifications: linker-drug LE17 coupled to cysteine sulfhydryl groups after reduction of the interchain disulfide bonds; DAR 3.98 for the whole antibody; sites not stated
IC50 (nM), in vitro killing activity, BXPC3 Cell [3]: 0.62 nM | IC50 (nM), in vitro killing activity, MDA-MB-468 Cell [3]: 0.82 nM | IC50 (nM), in vitro killing activity, NCI-N87 Cell [3]: 1.12 nM

B12: FDA018-LS13 (antibody, human IgG1, kappa, V domains shown)
VH: B1 VH
VL: B1 VL
modifications: linker-drug LS13 (SN-38 payload) coupled to cysteine sulfhydryl groups after reduction of the interchain disulfide bonds; DAR 3.97 for the whole antibody; sites not stated
IC50 (nM), in vitro killing activity, BXPC3 Cell [3]: 61.3 nM | IC50 (nM), in vitro killing activity, MDA-MB-468 Cell [3]: 67.4 nM

B13: FDA018-LE15 (antibody, human IgG1, kappa, V domains shown)
VH: B1 VH
VL: B1 VL
modifications: linker-drug LE15 coupled to cysteine sulfhydryl groups after reduction of the interchain disulfide bonds; DAR 4.12 for the whole antibody; sites not stated
IC50 (nM), in vitro killing activity, BXPC3 Cell [3]: 0.96 nM | IC50 (nM), in vitro killing activity, MDA-MB-468 Cell [3]: 0.93 nM | IC50 (nM), in vitro killing activity, NCI-N87 Cell [3]: 0.98 nM
